The source of these data is PMC7793103.

This series deals with HIV-1 reverse transcriptase (HXB2-RT) (HIV-1 (HXB2)). Description: MST. Particulars: MST: 50 nM RNA complex titrated with RT; binding buffer, pH and temperature not stated; annealing buffer 10 mM Tris-HCl pH 7.5, 10 mM NaCl, 1 mM MgCl2, 140 mM ….

MAL 5'UTR:tRNALys3: the Kd came out at 1360 nM.
